Test results reported in patent US20220265819A1 (GEN2 NEUROSCIENCE, published 2022).
Numbering of substitutions follows the chain as printed.

B1: Clone 31 (VH5Vκ2), humanised variant of clone #28, human IgG1 (antibody, V domains shown)
VH: QVQLQESGPGLVKPSETLSLTCTVSGFSLNNYDMSWVRQAPGKGLEWIGTVSTTYRRYYASWAKGRFTISRDNSKNTLDLQMTSLTAEDTATYFCAASGIWGRGTLVTVSS
VL: AQVLTQSPSTLSASVGDRVTITCQSSQRVYSNYLAWYQQKPGQPPKRLIFLASTLESGVPSRFSGSGSGTEFTLTISSLQPDDFATYYCAGTYTGSIWAFGGGTKVEIK
notes: also called VH5VK2; VH5Vk2
B2: Clone 28 (VH4Vκ4), humanised variant of clone #28, human IgG1 (antibody, V domains shown)
VH: B1 VH with R71K, N73T, K75S, N76T, L78V
VL: B1 VL with A1D, Q2I, V3Q, L4M
notes: also called VH4VK4; VH4Vk4
B3: Clone 27 (VH4Vκ2), humanised variant of clone #28, human IgG1 (antibody, V domains shown)
VH: B1 VH with R71K, N73T, K75S, N76T, L78V
VL: B1 VL
notes: also called VH4VK2; VH4Vk2
B4: Clone #28 VH0VK0 chimeric human IgG1 (rabbit VH and VK of Clone 1) (antibody, V domains shown)
VH: QSLEESGGGLVKPGGTLTLTCTVSGFSLNNYDMSWVRQAPGKGLEWIGTVSTTYRRYYASWAKGRFTISKTSSTTVDLKMTSLTTEDTATYFCAASGIWGPGTLVTVSL
VL: AQVLTQTTSPVSAAVGGTVTINCQSSQRVYSNYLAWYQQKPGQPPKRLIFLASTLESGVPSRFSGSGSGTQFTLTISDLECDDAATYYCAGTYTGSIWAFGGGTEVVVK
notes: also called VH0Vκ0; #28 VH0κ0
B5: Clone 23 (VH3Vκ2), humanised variant of clone #28, human IgG1 (antibody, V domains shown)
VH: QVQLQESGPGLVKPSETLSLTCTVSGFSLNNYDMSWVRQAPGKGLEWIGTVSTTYRRYYASWAKGRFTISKTSSTTVDLQMTSLTAEDTATYFCAASGIWGRGTLVTVSS
VL: B1 VL
notes: also called VH3VK2
B6: Clone 15 (VH1Vκ2), humanised variant of clone #28, human IgG1 (antibody, V domains shown)
VH: B4 VH with E4Q, G14S, G15E, T18S, T85A, P101R, L109S
VL: B1 VL
notes: also called VH1VK2
B7: Clone 14 (VH1Vκ1), humanised variant of clone #28, human IgG1 (antibody, V domains shown)
VH: B4 VH with E4Q, G14S, G15E, T18S, T85A, P101R, L109S
VL: B1 VL with P8T, T10P, P81C, K105E, E107V
notes: also called VH1VK1
B8: Clone 19 (VH2Vκ2), humanised variant of clone #28, human IgG1 (antibody, V domains shown)
VH: B4 VH with E4Q, G8P, G14S, G15E, T18S, K79Q, T85A, P101R, L109S
VL: B1 VL
notes: also called VH2VK2
B9: Clone 25 (VH3Vκ5), humanised variant of clone #28, human IgG1 (antibody, V domains shown)
VH: B5 VH
VL: B1 VL with A1D, Q2I, V3Q, L4M, Y30S, N32S
notes: also called VH3VK5
B10: Clone 37 (VH6Vκ5), humanised variant of clone #28, human IgG1 (antibody, V domains shown)
VH: B1 VH with S61D, W62S, A63V
VL: B1 VL with A1D, Q2I, V3Q, L4M, Y30S, N32S
notes: also called VH6VK5
B11: Clone 20 (VH2Vκ4), humanised variant of clone #28, human IgG1 (antibody, V domains shown)
VH: B4 VH with E4Q, G8P, G14S, G15E, T18S, K79Q, T85A, P101R, L109S
VL: B1 VL with A1D, Q2I, V3Q, L4M
notes: also called VH2VK4
B12: Clone 21 (VH2Vκ5), humanised variant of clone #28, human IgG1 (antibody, V domains shown)
VH: B4 VH with E4Q, G8P, G14S, G15E, T18S, K79Q, T85A, P101R, L109S
VL: B1 VL with A1D, Q2I, V3Q, L4M, Y30S, N32S
notes: also called VH2VK5
B13: Clone 22 (VH3Vκ1), humanised variant of clone #28, human IgG1 (antibody, V domains shown)
VH: B5 VH
VL: B1 VL with P8T, T10P, P81C, K105E, E107V
notes: also called VH3VK1
B14: Clone 18 (VH2Vκ1), humanised variant of clone #28, human IgG1 (antibody, V domains shown)
VH: B4 VH with E4Q, G8P, G14S, G15E, T18S, K79Q, T85A, P101R, L109S
VL: B1 VL with P8T, T10P, P81C, K105E, E107V
notes: also called VH2VK1
B15: Clone 17 (VH1Vκ5), humanised variant of clone #28, human IgG1 (antibody, V domains shown)
VH: B4 VH with E4Q, G14S, G15E, T18S, T85A, P101R, L109S
VL: B1 VL with A1D, Q2I, V3Q, L4M, Y30S, N32S
notes: also called VH1VK5
B16: Clone 16 (VH1Vκ4), humanised variant of clone #28, human IgG1 (antibody, V domains shown)
VH: B4 VH with E4Q, G14S, G15E, T18S, T85A, P101R, L109S
VL: B1 VL with A1D, Q2I, V3Q, L4M
notes: also called VH1VK4

biological target: full length pHrodo-labelled aggregated (P301S) 2N4R tau (human, UniProt P10636 1-758, labelled with pHrodo Red Maleimide); assay: cell-based or functional assay
Sequence (P10636 other isoform, or with tags, fused parts or gaps P301S P301S): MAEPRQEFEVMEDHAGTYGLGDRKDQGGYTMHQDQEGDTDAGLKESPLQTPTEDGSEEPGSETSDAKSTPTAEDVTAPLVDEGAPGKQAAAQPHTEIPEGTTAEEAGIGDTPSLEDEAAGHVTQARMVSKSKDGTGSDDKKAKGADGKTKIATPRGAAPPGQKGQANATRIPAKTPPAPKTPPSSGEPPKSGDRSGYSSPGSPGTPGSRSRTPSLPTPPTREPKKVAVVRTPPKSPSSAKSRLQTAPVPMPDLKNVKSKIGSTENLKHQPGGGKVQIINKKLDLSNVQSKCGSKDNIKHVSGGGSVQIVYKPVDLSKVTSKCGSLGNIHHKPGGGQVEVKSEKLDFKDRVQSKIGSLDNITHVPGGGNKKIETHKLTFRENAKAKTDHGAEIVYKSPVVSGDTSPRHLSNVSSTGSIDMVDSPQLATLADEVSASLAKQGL

increase of uptake of aggregated tau into human iPSC-derived microglia | inhibition of uptake of aggregated tau into human iPSC-derived astrocytes | inhibition of uptake of aggregated tau into human iPSC-derived neurons | Binder
133 % increase | 27.8 % inhibition | 57.2 % inhibition | B1
246 % increase | 29.1 % inhibition | 58.7 % inhibition | B2
179 % increase |  | 58.7 % inhibition | B3

biological target: full length pHrodo-labelled monomeric (P301S) 2N4R tau (human, UniProt P10636 1-758, labelled with pHrodo Red Maleimide); assay: cell-based or functional assay
Sequence (P10636 other isoform, or with tags, fused parts or gaps P301S P301S): as above

inhibition of uptake of monomeric tau into human iPSC-derived astrocytes | inhibition of uptake of monomeric tau into human iPSC-derived neurons | Binder
26.7 % inhibition | 57.3 % inhibition | B1
42 % inhibition | 61.5 % inhibition | B2
 | 66.5 % inhibition | B3

biological target: T1, full length recombinant human 2N4R tau (amino acids 1-441) (human, UniProt P10636 1-758); assay: SPR Biacore MCK, purified IgG on Protein A, tau analyte
T1 construct: Bought (rPeptide); recombinant, non-phosphorylated; also called recombinant tau
T1 sequence (P10636 other isoform, or with tags, fused parts or gaps limits assumed): as the sequence (P10636 other isoform, or with tags, fused parts or gaps P301S P301S) above, with S301P counted along it
Procedure: Biacore multi-cycle kinetics (MCK) analyses for antibody binding to recombinant (non-phosphorylated) 2N4R tau are summarised in FIG. 23 and Table 8. […] Slight variations in RMAX are considered likely to be due to differences in ligand capture and not reflective of significant variation in antibody binding characteristics.
24.2 Assessment of antibody binding to tau (Biacore MCK analysis): Binding of anti-tau hIgG1 to full length recombinant 2N4R tau (Rpeptide; SEQ ID NO: 2) was assessed using the Biacore T200 (GE Healthcare, Chicago, Ill., USA) running Biacore T200 Evaluation Software V2.0.1. hIgG1 were immobilised on a Protein A capture sensor chip in running buffer (HBS-EP+ buffer containing 1 mg/mL BSA) at 25° C. captured to ˜50 RU at 10 μL/min. […] Curves were compared to a reference cell that was mock immobilized (no antibody present).

Kd | Relative KD | koff | kon | Binder
24.9 nM | 1 fold vs VH0VK0 | 0.00249 s⁻¹ | 99900 M⁻¹ s⁻¹ | B4
34.8 nM | 1.4 fold vs VH0VK0 | 0.00321 s⁻¹ | 92400 M⁻¹ s⁻¹ | B1
26.9 nM | 1.08 fold vs VH0VK0 | 0.00186 s⁻¹ | 69200 M⁻¹ s⁻¹ | B2
44 nM | 1.77 fold vs VH0VK0 | 0.0026 s⁻¹ | 59100 M⁻¹ s⁻¹ | B3

biological target: T1, full length recombinant human 2N4R tau …; assay: SPR Biacore SCK, IgG on Protein A, tau analyte
Procedure: 23.5 Assessment of antibody binding to tau (Biacore SCK analysis): Binding of anti-tau hIgG1 to full length recombinant 2N4R tau (Rpeptide; SEQ ID NO: 2) was assessed using the Biacore T200 (GE Healthcare, Chicago, Ill., USA) running Biacore T200 Evaluation Software V2.0.1. hIgG1 were immobilised on a Protein A capture sensor chip in running buffer (HBS-EP+ buffer containing 1 mg/mL BSA) at 25° C. captured to ˜50 RU at 10 μL/min. For single-cycle kinetics experiments, recombinant 2N4R tau was flowed at concentrations ranging from 5 nM to 40 nM (2-fold dilutions) with an association time of 150 s and a dissociation time of 200 s. Curves were compared to a reference cell that was mock immobilized (no antibody present).
Data were analysed using Langmuir (1:1) binding analysis, describing a 1:1 interaction at the surface: […]

Kd | Relative KD | koff | kon | Binder
45.3 nM | 1 fold vs VH0VK0 | 0.00342 s⁻¹ | 75400 M⁻¹ s⁻¹ | B4
96.5 nM | 2.13 fold vs VH0VK0 | 0.00362 s⁻¹ | 37500 M⁻¹ s⁻¹ | B1
51.3 nM | 1.13 fold vs VH0VK0 | 0.00253 s⁻¹ | 49400 M⁻¹ s⁻¹ | B5
44.1 nM | 0.97 fold vs VH0VK0 | 0.00294 s⁻¹ | 66800 M⁻¹ s⁻¹ | B6
36.6 nM | 0.81 fold vs VH0VK0 | 0.00308 s⁻¹ | 84000 M⁻¹ s⁻¹ | B7
67.3 nM | 1.49 fold vs VH0VK0 | 0.00324 s⁻¹ | 48100 M⁻¹ s⁻¹ | B8
38.9 nM | 0.86 fold vs VH0VK0 | 0.00316 s⁻¹ | 81300 M⁻¹ s⁻¹ | B9
123 nM | 2.72 fold vs VH0VK0 | 0.00544 s⁻¹ | 44300 M⁻¹ s⁻¹ | B10
49 nM | 1.08 fold vs VH0VK0 | 0.00234 s⁻¹ | 47700 M⁻¹ s⁻¹ | B2
38 nM | 0.84 fold vs VH0VK0 | 0.00234 s⁻¹ | 61500 M⁻¹ s⁻¹ | B11
136 nM | 3 fold vs VH0VK0 | 0.00523 s⁻¹ | 38500 M⁻¹ s⁻¹ | B12
43.9 nM | 0.97 fold vs VH0VK0 | 0.00249 s⁻¹ | 56700 M⁻¹ s⁻¹ | B13
49.2 nM | 1.09 fold vs VH0VK0 | 0.0033 s⁻¹ | 67100 M⁻¹ s⁻¹ | B14
41.1 nM | 0.91 fold vs VH0VK0 | 0.00428 s⁻¹ | 104000 M⁻¹ s⁻¹ | B15
68.6 nM | 1.51 fold vs VH0VK0 | 0.00308 s⁻¹ | 44800 M⁻¹ s⁻¹ | B3
31.2 nM | 0.69 fold vs VH0VK0 | 0.00207 s⁻¹ | 66300 M⁻¹ s⁻¹ | B16

biological target: T2, Bovine serum albumin (bovine, UniProt P02769 25-607); assay: ELISA on 1% BSA, HEK supernatant, anti-human IgG-HRP, n=1
T2 construct: Negative control antigen in ELISA; also called BSA
T2 sequence (P02769 25-607 limits assumed): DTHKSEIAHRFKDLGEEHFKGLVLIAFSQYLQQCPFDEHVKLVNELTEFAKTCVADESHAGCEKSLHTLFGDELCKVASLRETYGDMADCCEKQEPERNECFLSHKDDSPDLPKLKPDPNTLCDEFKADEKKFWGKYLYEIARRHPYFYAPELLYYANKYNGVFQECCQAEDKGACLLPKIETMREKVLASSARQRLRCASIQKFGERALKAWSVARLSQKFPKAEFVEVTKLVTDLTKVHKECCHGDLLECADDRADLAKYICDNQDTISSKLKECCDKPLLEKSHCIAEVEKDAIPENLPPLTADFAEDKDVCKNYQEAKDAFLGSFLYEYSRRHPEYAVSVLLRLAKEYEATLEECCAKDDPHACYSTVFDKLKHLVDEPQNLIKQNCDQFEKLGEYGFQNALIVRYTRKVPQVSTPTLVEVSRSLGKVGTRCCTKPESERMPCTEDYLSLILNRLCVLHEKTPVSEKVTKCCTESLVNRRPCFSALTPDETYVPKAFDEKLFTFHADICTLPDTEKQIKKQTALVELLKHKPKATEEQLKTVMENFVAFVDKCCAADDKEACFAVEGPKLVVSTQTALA
Procedure: Antigen was removed from wells and the plates were then blocked for 1 hour at RT with 5% dried milk in 1×TBS. Blocking solution was removed, HEK293 cell supernatant (1:100 in 1% BSA/1×TBS) was added to relevant wells, and plates were incubated for 1 hour at RT with gentle shaking. Plates were then washed four times with TBS/0.1% Tween (TBST). Goat-anti-human IgG-HRP antibody (ThermoFisher Scientific, Waltham, Mass. USA), diluted 1:2000 in 5% milk/TBS, was added to each well and plates were incubated for 1 hour at RT with gentle shaking before being washed four times with TBST. 3,3′,5,5′-tetramethylbenzidine (TMB) ELISA solution was added to each well and plates were incubated for 15 mins at RT. An equal volume of 1 M sulfuric acid was added to each well and OD was measured at 450 nm.

binding result | Binder
no binding (tested: supernatant 1:100) | B4
no binding (tested: supernatant 1:100) | B1
no binding (tested: supernatant 1:100) | B5
no binding (tested: supernatant 1:100) | B6
no binding (tested: supernatant 1:100) | B7
no binding (tested: supernatant 1:100) | B8
no binding (tested: supernatant 1:100) | B9
no binding (tested: supernatant 1:100) | B10
no binding (tested: supernatant 1:100) | B2
no binding (tested: supernatant 1:100) | B11
no binding (tested: supernatant 1:100) | B12
no binding (tested: supernatant 1:100) | B13
no binding (tested: supernatant 1:100) | B14
no binding (tested: supernatant 1:100) | B15
no binding (tested: supernatant 1:100) | B3
no binding (tested: supernatant 1:100) | B16
